Test results taken from the DeepSol protein solubility set.

test: soluble on expression in E. coli; label from the status in PepcDB or PDB records

Sequence	soluble on expression in E. coli
MELDDFDPEDKEILSWDINDVKLPQNVKTTDWFQEWPDSYVKHIYSSDDRNAQRHLSSWAMRNTNNHNSRILKKSCLGVVVCSRDCSTEEGRKIYLRPAICDKARQKQQRKSCPNCNGPLKLIPCRGHGGFPVTNFWRHDGRFIFFQSKGEHDHPRPETKLEAEARRAMKKVHM	soluble
DKKIMVIVNTVDKAITLYEKLRDLSPCLIHSRFKIGDRDEKLRKECNIIIATQVIEVGVNISSEVMITEQAPITSIVQRVGRLLRDNKKDKGELYIWKSGNYYPYDKDEVENTIKELESKKNDISL	not soluble
MELYLIRHGIAEAQKTGIKDEERELTQEGKQKTEKVAYRLVKLGRQFDLIVTSPLIRARQTAEILLASGLSCQLEESNHLAPNGNIFNWLDYWLKPKNFPENAQIAIVGHEPCLSNWTEILLWGEAKDSLVLKKAGMIGLKLPEIGSPVGRSQMFWLTPPRYLLLEHHHHHH	soluble
MSLRDESRLDKYVIKEILRINRHLPRRRKTLEELLREERPHVVNRDGTKHYFDRDELERLADILPRYLHGRLKLPILIELGYSGAAVIRGKAEVRVVCEVLGEEWRFSQDRVELNMLDVRKLRREFPTATQYMFSTEYIMGRPKVERREGHHHHHH	soluble
MPDNEVDLLFAQLSPEDLIEWSDYLPESFTDRALAQMGERQRQRFELYDQYSENEIGRYTDHQMLVLSDKATVAQAQRFFRRIELDCNDNLFIVDEADKYLGTVRRYDIFKHEPHEPLISLLSEDSRALTANTTLLDAAEAIEHSREIELPVIDDAGELIGRVTLRAATALVREHYEAQLMATAGMDESDDLFAPILKGAQRRAV	soluble
GPGSMDAVRAMDYTDIYLRPRKKESVSPQEPLRSAQVDSAAESRVEWMLKGAFSVQQLLDRVEELSARVCMFDEKMVNLTKLVKLAQGIQEEKEADIRFQQQELLSRLKRLEQACARLEDMETFKQFIISKVQETLEDAHQAFLSDLAKIRADGEEQAARTKQRIENTVSDVRRDVEERIASLWGEAEQKDLSRQEAQDTLREKLRLVESSLRDLEMSVGRDYSRVPPLQEKIDGITQSLSSLEQKVDKTAGTVVTLGNEAKQARALLMEEIETTRQWVTRNLQRVKQHVEVISSDVEQLHNGRADLSARISRISCQADMECKKLRSQLSQKALVADALDNLVQKEFYKVEDVALRHQSLRTEVGAVKDV	not soluble
MTVLKLSHWRVLAELADGLPQHVSQLARMADMKPQQLNGFWQQMPAHIRGLLRQHDGYWRLVRPLAVFDAEGLRELGERSGFQTALKHECASSNDEILELARIAPDKAHKTICVTHLQSKGRGRQGRKWSHRLGECLMFSFGWVFDRPQYELGSLSPVAAVACRRALSRLGLDVQIKWPNDLVVGRDKLGGILIETVRTGGKTVAVVGIGINFVLPKEVENAASVQSLFQTASRRGNADAAVLLETLLVELDAVLLQYARDGFAPFVAEYQAANRDHGKAVLLLRDGETVFEGTVKGVDGQGVLHLETAEGKQTVVSGEISLRSDDRPVSVPKRRDSERFLLLDGGNSRLKWAWVENGTFATVGSAPYRDLSPLGAEWAEKADGNVRIVGCAVCGEFKKAQVQEQLARKIEWLPSSAQALGIRNHYRHPEEHGSDRWFNALGSRRFSRNACVVVSCGTAVTVDALTDDGHYLGGTIMPGFHLMKESLAVRTANLNRHAGKRYPFPTTTGNAVASGMMDAVCGSVMMMHGRLKEKTGAGKPVDVIITGGGAAKVAEALPPAFLAENTVRVADNLVIYGLLNMIAAEGREYEHI	not soluble
MIIGYFDGLCEPKNPGGIATFGFVIYLDNRKIEGYGLAEKPFSINSTNNVAEYSGLICLMETMLRLGISSPIIKGDSQLVIKQMNGEYKVKAKRIIPLYEKAIELKKKLNATLIWVPREENKEADRLSRVAYELVRRGKLRDIGCIILT	soluble
MSLEKHKVDFYNIPIVDYLLSIGEPLESVGHNYYQHKHHDSLKINQRKNYFVWNSRSSEKNSRGGVVQYMQIMHNLSLQETLSKLSEDLDGKVLPAIPKKSYPKKFNYKVKEAIVPLETQRYLVAKRKIPNKIVRLFFSYDLISQNENNEVIFKWFKGDKVMGFSKQGTIPLTDEEKEKYHTKRDFFKYVAPTTEADTMWGFNYLSGEPKHIFFFESEIDLMSYYSIFEEELNETGNFWLISINGVAIEKVYSFFRYGIENLNLKETCQSLHVCFDNDIAGKQACNKLQHLEFKNIPFQNDLPKEFKDWNEVLQNKEGHHHHHH	soluble
MGSDKIHHHHHHMIFQLKGKFQHYPWGGRYFIPHFLKLTEVVDQPYAEYWLGAHPAASATIKFGEQWLPLADVIKQAPELLGERSRQQFGDNLPYLLKILDIKQPLSIQLHPNKAQAEYGFNQENRQGIPLEDVRRIYKDRNHKPEMMIALSDFWLLHGFKSITAIQACLAKYPSTSALAKSLVEKSLAVVYAEIMHADQTQLASWLRPIIEQRRADYLADKLKLSDPDYWLLYMTDDLAADAPLDAGLMCFYLFNIVHLKKGEGIYQAANLPHAYLRGQSIELMANSDNVIRGGLTTKWVDIPALLQAVDYRPVRPQIIAAYRDDKTVDQNFYLYPTPQAKDFALQRLTIRQLVENRFVTDSASMLLVMKGSLYIDLGNTSFHLNQGDAVFISADSHVELIGENDGYAIIASLP	not soluble
MGSDKIHHHHHHANTQTNIQLERTSSDIEHALYYASFAANSHNTQSWKVNLDPKQKRLGVFLNNKRSLNVVDPNNRELYISIGCYIQSLKKSFEAYGYNVSISNIAPSKENKYQVVLINYQKLKNNKINNKQLDIIQKRHTDKRKFQKKPINRTVVSSLIKKYNNVYYYAKGSKTFKYLQKGSLAAAAKQYKNQDFLKEQGKWLRFSNQEVEKKQDGISGDMLGLNPIIKTLYYLTSNHKNATSNNFVKQSKNTLINQVENCAGFFVITGEQNISKWIAVGEKSQAFWYDCVRNNIAVQPISAMIEIPSYNQKLQQNLGKSQPVQLILRVGYVNSYGKNVGPRRNLKDYITVKK	not soluble
PKYTKSVLKKGDKTNFPKKGDVVHCWYTGTLQDGTVFDTNIQTSAKKKKNAKPLSFKVGVGKVIRGWDEALLTMSKGEKARLEIEPEWAYGKKGQPDAKIPPNAKLTFEVELVDID	soluble
MDARIVNALIGSVYETIRDVLGIEPKTGKPSTVSHIEIPHSLVTVIGITGGIEGSLIYSFSSETALKVVSAMMGGMEYNQLDELALSAIGELGNMTAGKLAMKLEHLGKHVDITPPTVVSGRDLKIKSFGVILKLPISVFSEEDFDLHLSVKSGG	soluble
MGSDKIHHHHHHMGIDELYKKEFGIVAGVDEAGRGCLAGPVVAAAVVLEKEIEGINDSKQLSPAKRERLLDEIMEKAAVGIGIASPEEIDLYNIFNATKLAMNRALENLSVKPSFVLVDGKGIELSVPGTCLVKGDQKSKLIGAASIVAKVFRDRLMSEFHRMYPQFSFHKHKGYATKEHLNEIRKNGVLPIHRLSFEPVLELLTDDLLREFFEKGLISENRFERILNLLGARKSVVFRKERTNHNLPLF	soluble
MKTASYAQSFSRAAKEYDAYAYLQQTVARELASWIEGMECESILDLGCGTGALWRALRFKPRFFTGVDLSMEMLDLHPQDPAIRLIQSDFNHPSLYEHSYDLIAASSSLQWSRDLAQSFDLIAKSAQNVAFAIFTSESLWEIHDYVDSHSPIPSKERIESLLKERFAGEFELKRYPLSFPSRVAMLSYLKGSGISGGRRLGFAQSKKLIQSAPFERLTFEVLFFVGKPLKADQK	not soluble
MTDYDDYEDRSGVVEEELLDFDRAMLDFQAMFPSLSNSHIEYVLRKYDGDVSATINELLYDNTPTTTTSESIPHGGDLTKLRQRRHEINEKLRENQKFLDTVTDVEIARAYEDQQLALLLEHREVNTLISEEKKKKSCSDSSSIQESRRHVKIPGKNSKNSKISVNKAKKLEPRRRSDEDRVPDGPYIGEGEVKSENFAAKIKETLRKASGSRISRLFSAP	not soluble
MGSDKIHHHHHHMTKILIVLSEWGYWGEELVGPLETFDAAGYQVDFATPNGKRPVALGVSMDPTFVDPPLGRPVTTQDMADKVRQLDDTNNPRLNNPKNLREWLPERPYWSSPKFLREMEEYYRLLDEVRQRDLQTYDAILIVGGSGPMVDLADNQRVHDLILSFYQMGKPVAAECYGVACLAFARDIGDRKSIIWGKHVTGHCLEYDYKDGTGFNGTNIDPCLNNINFGTPFYPLEYILRDATGPDGQYHGNVGRPTSVIVDYPFITGRSTPDSYLTGQKLVEVLEKGLKRYGW	not soluble
MFEKGIWLNEPRQWSVTDQRLTVITDPETDFWQQTHYGFCRDTGHFLGVSVKGEFTAQVHVQGDFKTLYDQAGLMVRVDERNWVKTGVEVSDGALMLGSVLTWGQSDWATGVFDDSSSGLWLRVTVAKGVMRIQHSSDGLRWPLLRLAAFPLSERYAVGAMCCSPERGGLKVVFSHFEVMPALGKDLHDLTLEHHHHHH	not soluble
GMQQPTASVVSYVAEYHKATETTMGRYKKVIEITGHDEVAAKLLEGLIDAGTRYFSKVVEMEHRMASARFRLDGEELRELTETLDRSRRLAHESLISSLHVFNRYIVKEYGEELKEAGIEGGIFPKPEANRDRIAIADWAGELLTGIYENRHR	soluble
GSDQVQKVDQYLYHMRLSDETLLEISKRFRKEMEKGLGATTHPTAAVKMLPTFVRSTPDGTEHGEFLALDLGGTNFRVLWVKVTDNGLQKVEMENQIYAIPEDIMRGSGTQLFDHIAECLANFMDKLQIKDKKLPLGFTFSFPCHQTKLDESFLVSWTKGFKSSGVEGRDVVALIRKAIQRRGDFDIDIVAVVNDTVGTMMTCGYDDHNCEIGLIVGTGSNACYMEEMRHIDMVEGDEGRMCINMEWGAFGDDGSLNDIRTEFDQEIDMGSLNPGKQLFEKMISGMYMGELVRLILVKMAKEELLFGGKLSPELLNTGRFETKDISDIEGEKDGIRKAREVLMRLGLDPTQEDCVATHRICQIVSTRSASLCAATLAAVLQRIKENKGEERLRSTIGVDGSVYKKHPHFAKRLHKTVRRLVPGCDVRFLRSEDGSGKGAAMVTAVAYRLADQHRARQKTLEHLQLSHDQLLEVKRRMKVEMERGLSKETHASAPVKMLPTYVCATPDGTEKGDFLALDLGGTNFRVLLVRVRNGKWGGVEMHNKIYAIPQEVMHGTGDELFDHIVQCIADFLEYMGMKGVSLPLGFTFSFPCQQNSLDESILLKWTKGFKASGCEGEDVVTLLKEAIHRREEFDLDVVAVVNDTVGTMMTCGFEDPHCEVGLIVGTGSNACYMEEMRNVELVEGEEGRMCVNMEWGAFGDNGCLDDFRTEFDVAVDELSLNPGKQRFEKMISGMYLGEIVRNILIDFTKRGLLFRGRISERLKTRGIFETKFLSQIESDCLALLQVRAILQHLGLESTCDDSIIVKEVCTVVARRAAQLCGAGMAAVVDRIRENRGLDALKVTVGVDGTLYKLHPHFAKVMHETVKDLAPKCDVSFLQSEDGSGKGAALITAVACRIREAGQ	soluble
